Source: patent publication US20100119478A1 (PROBIODRUG, published 2010)

T1: 07 AQPDAVNAPL
T1 construct: member of group m23; also called PepSpot spot 07
T1 peptide: AQPDAVNAPL

T2: 16 LAQDALNVPST
T2 construct: member of group m23; also called PepSpot spot 16
T2 peptide: LAQDALNVPST

T3: 11 EKLTGPDKAVT
T3 construct: member of group m23; also called PepSpot spot 11
T3 peptide: EKLTGPDKAVT

T4: 09 DAVNAPL
T4 construct: member of group m23; also called PepSpot spot 09
T4 peptide: DAVNAPL

B1: monoclonal antibody 348-2C9 (antibody, V domains shown)
VH: EVQLQQSGPELVKPGASVKMSCKASGYTFTDYYMDWVKQSHGESFECIGRVNPYNGGTSYNQKFKGKATLTVDKSSSTAYMELNSLTSEDSAVYYCARLGSSYRWGQGTTLTVSS
VL: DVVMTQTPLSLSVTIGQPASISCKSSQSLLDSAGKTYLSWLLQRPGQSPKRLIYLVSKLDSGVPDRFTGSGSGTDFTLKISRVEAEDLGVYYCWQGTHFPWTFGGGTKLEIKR
notes: Mouse IgG2b from hybridoma, Protein-G purified; also called Clone 2C9; DSM ACC 2906
B2: monoclonal antibody 348-1D4 (antibody, V domains shown)
VH: B1 VH
VL: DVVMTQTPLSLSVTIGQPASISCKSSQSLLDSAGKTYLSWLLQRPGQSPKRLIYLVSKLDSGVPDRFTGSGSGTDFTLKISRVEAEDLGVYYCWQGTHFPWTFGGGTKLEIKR
notes: Mouse IgG2b from hybridoma, Protein-G purified; also called Clone 1D4; DSM ACC 2905
B3: monoclonal antibody 332-4B8 (antibody, V domains shown)
VH: EVQLQQSGPELEKPGASVKISCKASGYSFTGYNMNWVKQNNGKSLEWIGNITPYYGSTSYNQKFKGRVTLTVDKSSSTAYMQLKSLTSEDSAVYFCLLWLRRGDYAMDYWGQGTSVTVSS
VL: DVLMTQTPLSLPVSLGDQASISCKSSQSIVHSNGNTYLEWYLQKPGQSPKLLIYKVFNRFSGVPDRFSGSGSGTDFTLKISRVEAEDLGVYYCFQGSHVPYTFGGGTKLEIKR
notes: Mouse IgG1 from hybridoma, Protein-G purified; also called Clone 4B8; 322-4B8

What was measured:
Experiment in all cases: PepSpot membrane, peptide 1 µg/spot, antibody 1 µg/ml, AP-conjugated anti-mouse detection
07 AQPDAVNAPL = target: T1, 07 AQPDAVNAPL
Method: (§1) Corresponding PepSpot membranes were prepared by JPT Peptide Technologies GmbH, Berlin (JPT). On these membranes, peptides with the indicated amino acid sequences (see FIG. 3; Z represents pE) were immobilized at a concentration of 1 μg/spot.
(§2) For analysis, membranes were blocked for two hours with TBST-M (=TBST+5% skimmed milk) at room temperature with gentle shaking. Membranes were incubated over night at 4° C. on a rocking platform with the individual MCP-1 N1pE antibody clones diluted to 1 μg/ml in equal volumes of TBST-M. Secondary anti-mouse antibody conjugated with alkaline phosphatase was used for signal detection, following standard procedures.

16 LAQDALNVPST = target: T2, 16 LAQDALNVPST
Method: as §1, §2

11 EKLTGPDKAVT = target: T3, 11 EKLTGPDKAVT
Method: as §1, §2

09 DAVNAPL = target: T4, 09 DAVNAPL
Method: as §1, §2

| Binder | binding result (07 AQPDAVNAPL) | binding result (16 LAQDALNVPST) | binding result (11 EKLTGPDKAVT) | binding result (09 DAVNAPL) |
| --- | --- | --- | --- | --- |
| B1 | no binding (tested: 1 µg peptide per spot) | no binding (tested: 1 µg peptide per spot) | no binding (tested: 1 µg peptide per spot) | no binding (tested: 1 µg peptide per spot) |
| B2 | no binding (tested: 1 µg peptide per spot) | no binding (tested: 1 µg peptide per spot) | no binding (tested: 1 µg peptide per spot) | no binding (tested: 1 µg peptide per spot) |
| B3 | no binding (tested: 1 µg peptide per spot) | no binding (tested: 1 µg peptide per spot) | no binding (tested: 1 µg peptide per spot) | no binding (tested: 1 µg peptide per spot) |
